Source: the supplement of paper PMC9170038

System: MS2 coat protein
Assay: apparent KD of MS2 coat protein; designed switch direction (-1 OFF switch, 1 ON switch): -1; higher = weaker reporter binding
Summary of the method: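 An oligonucleotide input, 200 uM small-molecule ligand, or no input was present during titration of SNAP-549-labelled MS2 coat protein, which was doubled from 0.7 or 1.5 nM to 3 µM. Designed RNA switches had been transcribed on Illumina chips by stalled E. coli RNA polymerase. Apparent KD per design is the median over clusters of curves fitted to normalised cluster fluorescence.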

[1] = Eterna round: R95, input ligand: microRNA oligo, concentration not stated
[2] = input ligand: microRNA oligo, concentration not stated
[3] = Eterna round: R95, input ligand: FMN 200 uM
[4] = Eterna round: R95, input ligand: none

Sequence | apparent KD of MS2 coat protein (input ligand: FMN 200 uM) [nM] | apparent KD of MS2 coat protein (input ligand: none) [nM] | apparent KD of MS2 coat protein [1] [nM] | further results
UCUGGGUCUGUGAGGAUAUCGGGCCCGAAAGGGCCCGAGAAGGCACAUGAGGAUCACCCAUGUAAGGGCUCGGG [-38.4, -36.3 kcal, A 23%, 0-7bis] (Eterna round: R97, puzzle: Brourd's mod of Exclusion 4) | 20.3 | 25 | – | –
UUUUAGUGAGGAUAUACAUUUUUUUAAUUAUUUAUAAUAUUACAUGAGGAUCACCCAUGUAGAAGGCACAUUUU [My Design] (puzzle: Exclusion 2) | – | – | 27.4 | –
ACAAGCUUUUAGAUUUUCAACAUGAGGAUCACCCAUGUUCGUCUUAUGCUAGUGCGAGUGCGGUGUACUCGUAUUAG [JL TOV1 3.81 sellena mod] (Eterna round: R97, puzzle: Sensor, turn-off variant 1) | 18.2 | 16.8 | – | –
GUCAGCUCGUGAGGAUAUGCACAUGAGGAUCACCCAUGUAAGAUCAAGCUGCUUCGGCAGCAAGUGCAGAAGGCACGAGCUGAC [ENG2/9-A1] (Eterna round: R96, puzzle: Exclusion NG 2) | 137 | 303 | – | apparent KD of MS2 coat protein [2]: 138 nM
UUCGUGCAGCUUUGCUGUACGAGUACAUGAGGAUCACCCAUGUAGGAUAUGGUACGCUUUGCGUGCUAGAAGGAUAUGUGUAGG [JL EXNG3 1.37] (Eterna round: R96, puzzle: Exclusion NG 3) | 55.5 | 43.9 | – | apparent KD of MS2 coat protein [2]: 27.5 nM
UAAGAGUGAGGAUAUACGUCGCUGGUCCGGAUGGACGCAUGACAUGAGGAUCACCCAUGUAGAAGGCACAAAAC [Enxela] (puzzle: Exclusion 2) | – | – | 26.8 | –
AUUAUGUAAGGAUAUCUUACAUGUGACUUCGGUCACUGUUAAGAGAAGGUACAUGAGGAUCACCCAUGUAUAAC [Ex4-3: 48] (puzzle: Exclusion 4) | – | – | 18.8 | –
ACAAGCUUUUUGUUCGUCUUAUACACUCCUAAUAAGACAACAUGAGGAUCACCCAUGUAACAAAGACGAACUCAUGU [Sesor Array 8 - Jieux - Sensor v3, turn-off variant 2] (puzzle: Sensor v3, turn-off variant 2) | – | – | 257 | apparent KD of MS2 coat protein [3]: 22.4 nM; apparent KD of MS2 coat protein [4]: 19.9 nM
CUCCUACAUGAGGAUCACCCAUGUCAGGAUAUCUCAGUGGCACCUAAAGGCGCCACCCAGAGAAGGGACGUGCA [Soistiis] (puzzle: Exclusion 1) | – | – | 10.6 | –
UUUAUGUCAGGAUAUGAUUAGAUCUACUUCGGUAGAUCUAAUCAGAAGGGACAUGAGGAUCACCCAUGUAGUUU [Ex4 - 3 - 13] (puzzle: Exclusion 4) | – | – | 119 | –
GCUGGGUCAGGAUAUACGAGAUCGAAAGAUCGAAGAUCCGUACAUGAGGAUCACCCAUGUAGAAGGGACUGGGC [ChP 11-04-2015 #7] (puzzle: Exclusion 2) | – | – | 19.5 | –
GGUCCACAUGAGGAUCACCCAUGUUAGGAUAUCUCCCGCCUCCUCACUAGAGGCGGACAGAGAAGGAACAUCAA [Raerge] (puzzle: Exclusion 1) | – | – | 23.2 | –
GCACGGAUGGUAGGAUAUCUGUGCGAUUAGCUCAGAGAAGGACCACAUGAGGAUCACCCAUGUACCUCAAUUAACCUUCCGUGC [Eli exng1 - 021] (Eterna round: R96, puzzle: Exclusion NG 1) | 16.9 | 17.6 | – | apparent KD of MS2 coat protein [2]: 21 nM
GCAAGCUUUUUCAAUAACAACAUGAGGAUCACCCAUGUUUAAGCUAUUACUUUUGGGCUCUUUAGUGCUAGUCUUAU [JR_STOV1_Sub037] (Eterna round: R97, puzzle: Sensor, turn-off variant 1) | 19.1 | 17.7 | – | –
UUGAUACAUGAGGAUCACCCAUGUUAGGAUAUACGCAUGCAUGCAUGCAUGCAUGCAAGUAGAAGGAACCAUGC [Design #1] (Eterna round: R97, puzzle: Exclusion 1) | 30.7 | 42 | – | –
GGUGCUGGCGCGUCGGUGUUGGUGCAAUAAGCUUGUGAAACAUGAGGAUCACCCAUGUCCUCAUAAGCUCGUCUUAU [salish99_TOv2_r2_086] (Eterna round: R96, puzzle: Sensor v3, turn-off variant 2) | 13.7 | 17.7 | – | apparent KD of MS2 coat protein [2]: 334 nM
UUACCCUGAGGAUAUCCACCGUGAUACAUGAGGAUCACCCAUGUUAAUGCCUGAGUUCCCGGAGAAGGCAGAUUCC [Megrez] (Eterna round: R97, puzzle: Exclusion 5) | 35.3 | 33.4 | – | –
CGUAAAAGGAAGGAUAUGCUAGACGAAAGUCUAGCAGAAGGUCCUACAUGAGGAUCACCCAUGUGUCCUAUACG [Mat - Exclusion 6 - Eli Mod - D12] (Eterna round: R97, puzzle: Exclusion 6) | 80.5 | 49.8 | – | –
UAAGUGUCAGGAUAUACAUGAGGAUCACCCAUGUGCCUCGCUACGGCCAGGCUCCCGUGUAGAAGGGAUCGUAA [Eternabot (Original) Solution 23] (Eterna round: R97, puzzle: Exclusion 3) | 110 | 61.8 | – | –
ACAUGAGGAUCACCCAUGUCCGGCUGGUCUGUCUCGGCUGUCGAGGAUAUAGCACGGUAUCCGCGCUAGAAGGCGGGAGCCGGC [Aenatbe mod 89] (Eterna round: R96, puzzle: Exclusion NG 3) | 99.5 | 47.4 | – | apparent KD of MS2 coat protein [2]: 34.6 nM
UUGUUGUAUGUAGGAUAUGCAUAUUGUUAUUAUGCAGAAGGACAUGAGGAUCACCCAUGUAUAUUACUAUUAUGUACUAUAUAU [MOD of Hoglahoo's a different Title] (Eterna round: R96, puzzle: Exclusion NG 1) | 106 | 32.6 | – | apparent KD of MS2 coat protein [2]: 25.5 nM
GCAGAAUACUAGGAUAUGUUGGUCGGAGGGCCAACAGAAGGAGUUACAUGAGGAUCACCCAUGUUCCCAAUGGG [Eternabot (Original) Solution 49] (Eterna round: R97, puzzle: Exclusion 6) | 66.1 | 52.7 | – | –
CGGAUGUCAGGAUAUCGUGCAUACAACGAAAGUUCUAUGUGCGAGAAGGGACAUGAGGAUCACCCAUGUUUACG [Omei Ex4 A11] (Eterna round: R97, puzzle: Exclusion 4) | 206 | 34.9 | – | –
GGAGCGGAAGGAUAUGCUGCGGGAUUGAAUGGAAAGAAAAUACAUGAGGAUCACCCAUGUAGAAGGUCCGUGAA [Tiquxe] (puzzle: Exclusion 2) | – | – | 17 | –
GACUAGGCAGGAUAUACAUGAGGAUCACCCAUGUGUCUGCGUUAAGCACGUGAAGACGGUAGAAGGGCCUACAC [ChP 13.04.2015 #18] (puzzle: Exclusion 3) | – | – | 13 | –
UAGAUUCAUUCCUCUAUAAACAUGAGGAUCACCCAUGUAAGUGAGGAUAUAGUAGGAGUUGUAUACUAGAAGGCACUUAGUUUU [JR_ExcNG3_Sub049] (Eterna round: R96, puzzle: Exclusion NG 3) | 49.4 | 13.3 | – | apparent KD of MS2 coat protein [2]: 10.7 nM
GAGAAAUUAUAGGAUAUCGUAUGGAUAAUUUAACGAGAAGGAUGAACAUGAGGAUCACCCAUGUGGUAUCAUGG [JL-ex6-3.13] (puzzle: Exclusion 6) | – | – | 327 | apparent KD of MS2 coat protein [3]: 262 nM; apparent KD of MS2 coat protein [4]: 331 nM
